Positions count from the first letter of the chain named.
Assays:
Assay in all cases: EMSA
Conditions in all cases: tags: MBP fusion
ZFP SBS#912 = target: T1, ZFP SBS#912 (synthetic)
T1 chain: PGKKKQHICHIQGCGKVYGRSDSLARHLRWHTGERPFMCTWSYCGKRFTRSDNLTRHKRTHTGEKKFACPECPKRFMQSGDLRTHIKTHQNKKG
How it was run: (§1)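 Purified ZFP was titrated against labeled double-stranded target (1 nM or lower, at least 10-fold below expected Kd) carrying the natural binding site with flanks. Binding buffer was 10 mM Tris pH 7.5, 100 mM KCl, 1 mM MgCl2, 0.1 mM ZnCl2, 5 mM DTT, 10% glycerol, 0.02% BSA, with equilibration for at least 45 min. Bound and free target were separated on a 10% polyacrylamide gel.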

ZFP SBS#920 = ZFP SBS#920 (synthetic)
How it was run: as §1

ZFP SBS#786 = ZFP SBS#786 (synthetic)
How it was run: as §1

ZFP SBS#785 = ZFP SBS#785 (synthetic)
How it was run: as §1

ZFP SBS#783 = ZFP SBS#783 (synthetic)
How it was run: as §1

ZFP SBS#909 = ZFP SBS#909 (synthetic)
How it was run: as §1

ZFP SBS#904 = ZFP SBS#904 (synthetic)
How it was run: as §1

ZFP SBS#931 = ZFP SBS#931 (synthetic)
How it was run: as §1

ZFP SBS#935 = ZFP SBS#935 (synthetic)
How it was run: as §1

ZFP SBS#911 = ZFP SBS#911 (synthetic)
How it was run: as §1

ZFP SBS#910 = ZFP SBS#910 (synthetic)
How it was run: as §1

ZFP SBS#934 = ZFP SBS#934 (synthetic)
How it was run: as §1

ZFP SBS#921 = ZFP SBS#921 (synthetic)
How it was run: as §1

ZFP SBS#908 = target: T2, ZFP SBS#908 (synthetic)
T2 chain: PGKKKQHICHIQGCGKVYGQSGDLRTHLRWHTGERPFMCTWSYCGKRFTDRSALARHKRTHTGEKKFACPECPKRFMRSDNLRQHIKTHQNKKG
How it was run: as §1

ZFP SBS#922 = target: T3, ZFP SBS#922 (synthetic)
T3 chain: T2 chain with G22H, R25T, T26K
How it was run: as §1

ZFP SBS#923 = ZFP SBS#923 (synthetic)
How it was run: as §1

ZFP SBS#962 = ZFP SBS#962 (synthetic, UniProt P08047)
How it was run: as §1

ZFP SBS#963 = ZFP SBS#963 (synthetic)
How it was run: as §1

ZFP SBS#903 = ZFP SBS#903 (synthetic)
How it was run: as §1

ZFP SBS#932 = target: T4, ZFP SBS#932 (synthetic)
T4 chain: T1 chain with S23H, R50Q, D52S, T55V, Q78R, G80D, D81A, T84Q
How it was run: as §1

ZFP SBS#915 = ZFP SBS#915 (synthetic)
How it was run: as §1

ZFP SBS#914 = ZFP SBS#914 (synthetic)
How it was run: as §1

ZFP SBS#781 = ZFP SBS#781 (synthetic, UniProt P08047)
How it was run: as §1

ZFP SBS#929 = target: T5, ZFP SBS#929 (synthetic)
T5 chain: T2 chain with G22S, D23N, R25A, T26R, D50Q, R51S, S52A, A53T, Q84E
How it was run: as §1

ZFP SBS#926 = target: T6, ZFP SBS#926 (synthetic)
T6 chain: T1 chain with S23A, A25T, N53S, T55A, Q78R, G80D, D81S, R83A, T84R
How it was run: as §1

ZFP SBS#905 = target: T7, ZFP SBS#905 (synthetic)
T7 chain: T1 chain with D22S, S23A, A25T, N53S, T55A, Q78R, G80D, D81S, R83A, T84R
How it was run: as §1

ZFP SBS#787 = target: T8, ZFP SBS#787 (synthetic)
T8 chain: T1 chain with R20Q, S23N, T55A, Q78R, G80D, D81H, R83T, T84Q
How it was run: as §1

ZFP SBS#431 = target: T9, ZFP SBS#431 (synthetic)
T9 chain: T2 chain with Q20D, D23H, R25T, T26R, A53N, A55E, R78D, D80S, R83T, Q84R
How it was run: as §1

ZFP SBS#927 = target: T10, ZFP SBS#927 (synthetic)
T10 chain: T1 chain with S23N, R50T, D52G, N53S, Q78R, G80D, D81N, T84E
How it was run: as §1

ZFP SBS#928 = target: T11, ZFP SBS#928 (synthetic)
T11 chain: T1 chain with S23N, R50Q, D52S, N53A, Q78R, G80D, D81N, T84E
How it was run: as §1

ZFP SBS#916 = ZFP SBS#916 (synthetic)
How it was run: as §1

ZFP SBS#826 = target: T12, ZFP SBS#826 (synthetic)
T12 chain: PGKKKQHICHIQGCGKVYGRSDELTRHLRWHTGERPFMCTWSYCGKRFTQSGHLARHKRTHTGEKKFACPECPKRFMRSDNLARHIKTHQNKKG
How it was run: as §1

ZFP SBS#827 = target: T13, ZFP SBS#827 (synthetic)
T13 chain: T12 chain with S21A, E23T, T25R
How it was run: as §1

ZFP SBS#750 = ZFP SBS#750 (synthetic)
How it was run: as §1

ZFP SBS#256 = target: T14, ZFP SBS#256 (synthetic)
T14 chain: T2 chain with Q20E, S21R, R25T, D50R, R51S, S52D, A53H, A55S, N81E, Q84R
How it was run: as §1

ZFP SBS#945 = target: T15, ZFP SBS#945 (synthetic)
T15 chain: T1 chain with A25T, S51A, N53T, T55R, Q78M, G80H, D81H, R83S, T84R
How it was run: as §1

ZFP SBS#947 = ZFP SBS#947 (synthetic)
How it was run: as §1

ZFP SBS#946 = target: T16, ZFP SBS#946 (synthetic)
T16 chain: T1 chain with A25T, N53V, T55Q, Q78M, G80H, D81H, R83S, T84R
How it was run: as §1

ZFP SBS#948 = ZFP SBS#948 (synthetic)
How it was run: as §1

ZFP SBS#933 = target: T17, ZFP SBS#933 (synthetic)
T17 chain: T1 chain with R20Q, D22A, S23N, T55A, Q78D, S79R, G80S, D81N, R83T, T84R
How it was run: as §1

Chain of ZFP SBS#910 (synthetic) (chain, as listed by the source): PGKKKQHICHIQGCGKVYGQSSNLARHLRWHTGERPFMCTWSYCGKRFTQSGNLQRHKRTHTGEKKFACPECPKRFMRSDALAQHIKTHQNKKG
Chain of ZFP SBS#785 (synthetic) (chain, as listed by the source): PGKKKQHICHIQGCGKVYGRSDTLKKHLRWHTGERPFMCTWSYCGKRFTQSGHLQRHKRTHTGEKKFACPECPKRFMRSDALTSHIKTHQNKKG
Chain of ZFP SBS#786 (synthetic) (chain, as listed by the source): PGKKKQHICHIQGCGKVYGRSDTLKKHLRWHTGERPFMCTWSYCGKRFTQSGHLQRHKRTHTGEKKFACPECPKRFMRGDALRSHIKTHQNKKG
Chain of ZFP SBS#909 (synthetic) (chain, as listed by the source): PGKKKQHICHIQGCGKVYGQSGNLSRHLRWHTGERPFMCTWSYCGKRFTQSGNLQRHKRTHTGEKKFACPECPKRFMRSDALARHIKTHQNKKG
Chain of ZFP SBS#962 (P08047 other isoform, or with tags, fused parts or gaps): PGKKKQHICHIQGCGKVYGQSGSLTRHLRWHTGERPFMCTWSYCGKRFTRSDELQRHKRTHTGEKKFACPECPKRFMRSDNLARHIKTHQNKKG
Chain of ZFP SBS#923 (synthetic) (chain, as listed by the source): as the sequence (P08047 other isoform, or with tags, fused parts or gaps) above, with G22H, S23D, R26K, R50D, S51P, D52G, E53A, Q55V, A83R, R84Q counted along it
Chain of ZFP SBS#916 (synthetic) (chain, as listed by the source): as the sequence (P08047 other isoform, or with tags, fused parts or gaps) above, with S23H, T25A, R50Q, D52G, E53N, Q55A, A83Q counted along it
Chain of ZFP SBS#903 (synthetic) (chain, as listed by the source): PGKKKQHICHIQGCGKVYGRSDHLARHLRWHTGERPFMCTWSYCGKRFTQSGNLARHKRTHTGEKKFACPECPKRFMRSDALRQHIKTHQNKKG
Chain of ZFP SBS#920 (synthetic) (chain, as listed by the source): as the sequence (P08047 other isoform, or with tags, fused parts or gaps) above, with G22S, T25V, E53S, Q55A, R78T, D80A, A83S counted along it
Chain of ZFP SBS#904 (synthetic) (chain, as listed by the source): as the sequence (P08047 other isoform, or with tags, fused parts or gaps) above, with Q20D, G22S, S23N, R50Q, D52S, E53H, Q55A, A83T, R84Q counted along it
Chain of ZFP SBS#911 (synthetic) (chain, as listed by the source): as the sequence (P08047 other isoform, or with tags, fused parts or gaps) above, with R50Q, D52S, E53H, Q55A, N81A, R84Q counted along it
Chain of ZFP SBS#934 (synthetic) (chain, as listed by the source): as the sequence (P08047 other isoform, or with tags, fused parts or gaps) above, with G22S, S23N, T25A, R50Q, D52G, E53N, N81A, A83T, R84S counted along it
Chain of ZFP SBS#915 (synthetic) (chain, as listed by the source): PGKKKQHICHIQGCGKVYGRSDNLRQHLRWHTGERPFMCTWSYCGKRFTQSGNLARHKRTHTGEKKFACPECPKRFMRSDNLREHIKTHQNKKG
Chain of ZFP SBS#947 (synthetic) (chain, as listed by the source): as the sequence (P08047 other isoform, or with tags, fused parts or gaps) above, with Q20R, G22D, R78Q, D80S, N81H counted along it
Chain of ZFP SBS#931 (synthetic) (chain, as listed by the source): as the sequence (P08047 other isoform, or with tags, fused parts or gaps) above, with Q20R, G22D, S23N, T25A, R50Q, D52S, E53N, Q55V counted along it
Chain of ZFP SBS#921 (synthetic) (chain, as listed by the source): as the sequence (P08047 other isoform, or with tags, fused parts or gaps) above, with S23D, T25R, R26T, R50D, S51P, D52G, E53A, Q55V, A83R, R84Q counted along it
Chain of ZFP SBS#914 (synthetic) (chain, as listed by the source): as the sequence (P08047 other isoform, or with tags, fused parts or gaps) above, with Q20R, G22D, S23N, R26Q, R50Q, D52G, E53N, Q55A, A83R, R84E counted along it
Chain of ZFP SBS#948 (synthetic) (chain, as listed by the source): as the sequence (P08047 other isoform, or with tags, fused parts or gaps) above, with Q20R, G22D, E53V, R78Q, D80S, N81H counted along it

B1: TCAGAGGTG (dsDNA)
DNA 1: TCAGAGGTG
DNA 2: CACCTCTGA
B1 was tested, and the Kd (ZFP SBS#912) was 0.135 nM.

B2: GATGTGGTA (dsDNA)
DNA 1: GATGTGGTA
DNA 2: TACCACATC
B2 gave a Kd (ZFP SBS#920) of 4 nM.

B3: TTGGGAGCGG (dsDNA)
DNA 1: TTGGGAGCGG
DNA 2: CCGCTCCCAA
Work on B3 yielded a Kd (ZFP SBS#786) of 2000 nM, a Kd (ZFP SBS#785) of 50 nM and a Kd (ZFP SBS#783) of 2000 nM.

B4: GTGGAAGAA (dsDNA)
DNA 1: GTGGAAGAA
DNA 2: TTCTTCCAC
In the case of B4, the Kd (ZFP SBS#909) is reported as 16.4 nM.

B5: AAGGGTGAC (dsDNA)
DNA 1: AAGGGTGAC
DNA 2: GTCACCCTT
B5 gave a Kd (ZFP SBS#904) of 1 nM.

B6: GAGGAAGAG (dsDNA)
DNA 1: GAGGAAGAG
DNA 2: CTCTTCCTC
Binder B6 has a Kd (ZFP SBS#931) of 2 nM.

B7: ATGGGTGCA (dsDNA)
DNA 1: ATGGGTGCA
DNA 2: TGCACCCAT
For B7, the Kd (ZFP SBS#935) was 0.91 nM and the Kd (ZFP SBS#911) was 0.91 nM.

B8: ATGGAAGAT (dsDNA)
DNA 1: ATGGAAGAT
DNA 2: ATCTTCCAT
B8 showed a Kd (ZFP SBS#910) of 0.03 nM and a Kd (ZFP SBS#934) of 0.07 nM.

B9: AAGGTCTCA (dsDNA)
DNA 1: AAGGTCTCA
DNA 2: TGAGACCTT
For B9, the Kd (ZFP SBS#921) was 11 nM, the Kd (ZFP SBS#908) was 50 nM and the Kd (ZFP SBS#922) was 4 nM. For the same binder, the Kd (ZFP SBS#923) was 2 nM.

B10: GAGGCGGCA (dsDNA)
DNA 1: GAGGCGGCA
DNA 2: TGCCGCCTC
B10 gave a Kd (ZFP SBS#962) of 0.015 nM and a Kd (ZFP SBS#963) of 0.015 nM.

B11: ATGGAAGGG (dsDNA)
DNA 1: ATGGAAGGG
DNA 2: CCCTTCCAT
For B11, the Kd (ZFP SBS#903) was 1.03 nM and the Kd (ZFP SBS#932) was 797 nM.

B12: CAGGAAAAG (dsDNA)
DNA 1: CAGGAAAAG
DNA 2: CTTTTCCTG
B12 was tested, and the Kd (ZFP SBS#915) was 45.1 nM and the Kd (ZFP SBS#914) was 1.26 nM.

B13: GGGGAGCAGC (dsDNA)
DNA 1: GGGGAGCAGC
DNA 2: GCTGCTCCCC
Binder B13 has a Kd (ZFP SBS#781) of 4.25 nM.

B14: CAGGTAGAT (dsDNA)
DNA 1: CAGGTAGAT
DNA 2: ATCTACCTG
With B14 the Kd (ZFP SBS#929) was 1.3 nM.

B15: GTGGTGGTG (dsDNA)
DNA 1: GTGGTGGTG
DNA 2: CACCACCAC
In the case of B15, the Kd (ZFP SBS#926) is reported as 7.5 nM and the Kd (ZFP SBS#905) is reported as 1.15 nM.

B16: AGGGAGGATG (dsDNA)
DNA 1: AGGGAGGATG
DNA 2: CATCCTCCCT
B16 showed a Kd (ZFP SBS#787) of 4 nM.

B17: GACGACGGC (dsDNA)
DNA 1: GACGACGGC
DNA 2: GCCGTCGTC
B17 was tested, and the Kd (ZFP SBS#431) was 100 nM.

B18: CAGGTTGAG (dsDNA)
DNA 1: CAGGTTGAG
DNA 2: CTCAACCTG
With B18 the Kd (ZFP SBS#927) was 3.61 nM and the Kd (ZFP SBS#928) was 25 nM.

B19: GAGGAAGGA (dsDNA)
DNA 1: GAGGAAGGA
DNA 2: TCCTTCCTC
For B19, the Kd (ZFP SBS#916) was 1.3 nM.

B20: GAGGGAGCGA (dsDNA)
DNA 1: GAGGGAGCGA
DNA 2: TCGCTCCCTC
For B20, the Kd (ZFP SBS#826) was 2.75 nM, the Kd (ZFP SBS#827) was 1.2 nM and the Kd (ZFP SBS#750) was 52 nM.

B21: GCGGGGTCC (dsDNA)
DNA 1: GCGGGGTCC
DNA 2: GGACCCCGC
For B21, the Kd (ZFP SBS#256) was 800 nM.

B22: GGTGCGGTG (dsDNA)
DNA 1: GGTGCGGTG
DNA 2: CACCGCACC
With B22 the Kd (ZFP SBS#945) was 0.027 nM, the Kd (ZFP SBS#947) was 0.013 nM and the Kd (ZFP SBS#946) was 0.027 nM. The Kd (ZFP SBS#948) was 0.017 nM.

B23: GACGAGGAA (dsDNA)
DNA 1: GACGAGGAA
DNA 2: TTCCTCGTC
In the case of B23, the Kd (ZFP SBS#933) is reported as 500 nM.
